In test [1] the target is T1, murine CLEC14A-Fc fusion protein (mouse, UniProt Q8VCP9 22-386).
T1 construct: extracellular domain; also called CM; mCLEC14A-Fc; not shown: human Fc tag from the pcDNA3-Fc plasmid
T1 sequence (looked up): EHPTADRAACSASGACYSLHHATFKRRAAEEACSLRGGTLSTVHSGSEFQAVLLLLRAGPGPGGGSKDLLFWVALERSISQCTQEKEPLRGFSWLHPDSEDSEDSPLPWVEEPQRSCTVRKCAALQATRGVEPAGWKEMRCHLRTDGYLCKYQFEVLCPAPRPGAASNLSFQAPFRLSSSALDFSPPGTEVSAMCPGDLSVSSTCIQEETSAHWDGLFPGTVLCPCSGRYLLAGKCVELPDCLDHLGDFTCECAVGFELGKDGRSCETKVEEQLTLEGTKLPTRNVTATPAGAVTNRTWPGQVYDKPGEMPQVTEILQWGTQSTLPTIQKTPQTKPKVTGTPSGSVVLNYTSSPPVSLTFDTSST
The experiment in a line: ELISA of hybridoma supernatants on absorbed antigen. The protocol:
More than 500 HAT-resistant hybridoma clones from each mouse were obtained. All of the clone supernatants were tested twice with 4 days interval by ELISA against three absorbed antigens (CM, CH and Fc). […] The positives were cloned 2-4 times by the limiting dilution method, propagated in culture flasks and injected into mice for ascites. One clone (CRT-3) was the result of immunisation with CLEC14a human-AP (CHAP), and the other clone (CRT-2) was the result of immunisation with CLEC14a mouse-AP (CM-AP).
(ELISA stands for enzyme-linked immunosorbent assay.)

The target in test [2] is T2, full length human CLEC14A on cells (engineered CHO, SEND or 293 cells; HUVECs) (human, UniProt Q86T13 22-490).
T2 construct: HUVECs express it naturally; also called huCLEC
T2 sequence: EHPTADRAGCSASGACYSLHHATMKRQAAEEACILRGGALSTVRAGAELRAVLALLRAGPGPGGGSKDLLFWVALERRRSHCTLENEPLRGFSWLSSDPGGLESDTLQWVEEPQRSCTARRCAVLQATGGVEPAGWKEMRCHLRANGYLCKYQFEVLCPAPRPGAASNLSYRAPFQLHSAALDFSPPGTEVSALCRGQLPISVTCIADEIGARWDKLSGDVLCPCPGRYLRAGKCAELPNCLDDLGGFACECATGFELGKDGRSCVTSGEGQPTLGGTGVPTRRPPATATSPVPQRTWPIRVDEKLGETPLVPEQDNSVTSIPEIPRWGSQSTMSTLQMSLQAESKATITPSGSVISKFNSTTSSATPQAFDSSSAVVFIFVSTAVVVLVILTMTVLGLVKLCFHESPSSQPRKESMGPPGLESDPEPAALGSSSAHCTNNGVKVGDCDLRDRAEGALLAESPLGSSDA
The experiment in a line: fluorescence microscopy of HUVEC treated with CRT-3, antibody localisation at 0 and 90 minutes.

The target in test [3] is T3, thrombomodulin (CD141), wild type, with C-terminal GFP tag, expressed on HEK293T cells (UniProt P07204 19-575).
T3 construct: whole, on cells; also called WT CD141; VVT CD141; not shown: C-terminal GFP tag
T3 sequence (P07204 19-575): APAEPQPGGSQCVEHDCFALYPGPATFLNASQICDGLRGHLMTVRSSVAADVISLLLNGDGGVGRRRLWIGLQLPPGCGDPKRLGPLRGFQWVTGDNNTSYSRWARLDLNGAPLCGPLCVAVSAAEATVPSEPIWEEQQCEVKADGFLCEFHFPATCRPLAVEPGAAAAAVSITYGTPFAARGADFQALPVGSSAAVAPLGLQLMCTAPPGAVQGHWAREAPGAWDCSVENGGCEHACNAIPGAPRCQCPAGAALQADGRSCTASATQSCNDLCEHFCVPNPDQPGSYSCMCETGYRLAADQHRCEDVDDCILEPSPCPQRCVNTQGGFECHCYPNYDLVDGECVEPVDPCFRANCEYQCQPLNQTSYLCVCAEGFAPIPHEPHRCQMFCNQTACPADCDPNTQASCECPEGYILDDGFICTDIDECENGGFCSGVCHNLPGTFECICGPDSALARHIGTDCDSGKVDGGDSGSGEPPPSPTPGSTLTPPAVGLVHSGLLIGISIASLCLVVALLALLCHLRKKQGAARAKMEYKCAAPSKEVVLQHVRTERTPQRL
The test can be described thus: flow cytometry, HEK293T cells transfected with thrombomodulin (C-terminal GFP tag, GFP-positive cells gated).

The values below come from patent US20190085082A1 (CANCER RESEARCH TECHNOLOGY, published 2019).

B1: CRT-3 anti-CLEC14A monoclonal antibody (antibody, IgG1, V domains shown)
VH: EVQLQQSGTVLARPGASVKMSCKASGYTFTSYWMHWVKQRPGQGLEWIGAIYPGNSDTSYNQKFKGKAKLTAVTSTSTAYMELSSLTNEDSAVFYCTHYYGSDYAMDYWGQGTSVTV
VL: QIVLTQSPAIMSASLGERVTMTCTASSSVSSSYLHWYQQKPGSSPKLWIYSTSNLASGVPARFSGSGSGTSYSLTISSMEAEDAATYYCHQYHRSPRTFGGGTKLEIKR
On to B1, for which the binding result is reported as “binds” in test [1], “binds” in test [2] and “no binding” in test [3].
